# Experimental data from patent publication US20230054458A1 (JIANGSU HENGRUI MEDICINE, published 2023).
# Target: human claudin18.2 (Claudin 18.2, Genbank NP_001002026) (human)
# Assay: cell-based or functional assay
"ADCC effect IC50, FcrR3A-V158-NFAT-RE-Jurkat reporter luminescence, NUGC4 cells with high claudin18.2 expression [µg/mL]","ADCC effect IC50, FcrR3A-V158-NFAT-RE-Jurkat reporter luminescence, NUGC4 cells with low claudin18.2 expression [µg/mL]","ADCC effect IC50, FcrR3A-V158-NFAT-RE-Jurkat reporter luminescence, NUGC4 cells with moderate claudin18.2 expression [µg/mL]",Binder
0.0262,0.0224,0.0154,"humanized antibody h1901-11 (antibody, human IgG1, kappa, V domains shown) VH: EVQLVESGGGLVQPGGSLRLSCAASGFTFSDYGIHWVRQAPGKGLEWIAYISRGSSTIYYADTVKGRFTISRDNAKNSLYLQMTSLRAEDTAVYYCARGGYDTRNAMDYWGQGTTVTVSS VL: DIVMTQSPDSLAVSLGERATISCKSSQSLLNSGNQKNYLAWYQQKPGQPPKLLIYGASTRASGVPDRFSGSGSGTDFTLTISSLQAEDVAIYHCQNDLYYPLTFGQGTKLEIKR"
0.133,0.183,0.21,"IMAB-362 (positive control antibody, from WO2016166122) (antibody, human IgG1, kappa, V domains shown) VH: QVQLQQPGAELVRPGASVKLSCKASGYTFTSYWINWVKQRPGQGLEWIGNIYPSDSYTNYNQKFKDKATLTVDKSSSTAYMQLSSPTSEDSAVYYCTRSWRGNSFDYWGQGTTLTVSS VL: DIVMTQSPSSLTVTAGEKVTMSCKSSQSLLNSGNQKNYLTWYQQKPGQPPKLLIYWASTRESGVPDRFTGSGSGTDFTLTISSVQAEDLAVYYCQNDYSYPFTFGSGTKLEIKR"
